Experiments:
[1] = target: Rev (Human immunodeficiency virus 1) (UniProt P04325); assay: fluorescence; conditions: cited from earlier work
[2] = target: the molecule itself; assay: single-molecule TIRF fluorescence microscopy

Sequence of DDX1 (Q92499 whole entry): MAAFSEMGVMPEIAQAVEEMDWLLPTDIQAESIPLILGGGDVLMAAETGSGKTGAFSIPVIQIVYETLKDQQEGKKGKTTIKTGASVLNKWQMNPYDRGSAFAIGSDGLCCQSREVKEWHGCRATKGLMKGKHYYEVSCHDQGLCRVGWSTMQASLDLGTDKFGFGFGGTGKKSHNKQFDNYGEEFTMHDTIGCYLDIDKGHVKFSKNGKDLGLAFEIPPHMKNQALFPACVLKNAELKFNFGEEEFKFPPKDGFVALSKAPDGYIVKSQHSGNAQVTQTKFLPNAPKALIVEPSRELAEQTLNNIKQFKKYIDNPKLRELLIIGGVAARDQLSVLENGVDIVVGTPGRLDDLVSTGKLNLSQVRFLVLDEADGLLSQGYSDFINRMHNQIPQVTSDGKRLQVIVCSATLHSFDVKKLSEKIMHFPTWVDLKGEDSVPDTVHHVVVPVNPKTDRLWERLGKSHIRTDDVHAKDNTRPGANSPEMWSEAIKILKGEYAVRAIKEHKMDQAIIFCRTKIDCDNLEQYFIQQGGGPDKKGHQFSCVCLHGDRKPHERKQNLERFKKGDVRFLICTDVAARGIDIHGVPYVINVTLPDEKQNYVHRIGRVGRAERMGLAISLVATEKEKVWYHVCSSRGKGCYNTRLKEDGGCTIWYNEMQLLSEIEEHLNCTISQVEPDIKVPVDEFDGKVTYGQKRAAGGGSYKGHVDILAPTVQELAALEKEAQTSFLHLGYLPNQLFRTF

Molecule | Kd [1] | Kd [2] | stoichiometry N [2]
DDX1 (from UniProt Q92499) | 36 nM |  | 
HIV-1 Rev (recombinant construct with N-terminal extension, both native cysteines changed to serine, labeled with Alexa-Fluor 555) (natural protein) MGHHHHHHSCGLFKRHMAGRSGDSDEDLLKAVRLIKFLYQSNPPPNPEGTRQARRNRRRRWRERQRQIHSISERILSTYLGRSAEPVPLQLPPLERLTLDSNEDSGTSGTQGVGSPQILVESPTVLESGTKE |  | ~1.5 nM | ≤ 8 Rev monomers on one RRE

— paper PMC3140434 (Journal of molecular biology, 2011)
